Data taken from patent publication US20080201790.

B1: MEKK1 (protein encoded by p-MEKK1, transiently expressed in COS cells) (protein)
chain: MVTAVPAVFSKLVTMLNASGSTHFTRMRRRLMAIADEVEIAEVIQLGVEDTVDGHQDSLQAVAPTSCLENSSLEHTVHREKTGKGLSATRLSASSEDISDRLAGVSVGLPSSTTTEQPKPAVQTKGRPHSQCLNSSPLSHAQLMFPAPSAPCSSAPSVPDISKHRPQAFVPCKIPSASPQTQRKFSLQFQRNCSEHRDSDQLSPVFTQSRPPPSSNIHRPKPSRPVPGSTSKLGDATKSSMTLDLGSASRCDDSFGGGGNSGNAVIPSDETVFTPVEDKCRLDVNTELNSSIEDLLEASMPSSDTTVTFKSEVAVLSPEKAENDDTYKDDVNHNQKCKEKMEAEEEEALAIAMAMSASQDALPIVPQLQVENGEDIIIIQQDTPETLPGHTKAKQPYREDAEWLKGQQIGLGAFSSCYQAQDVGTGTLMAVKQVTYVRNTSSEQEEVVEALREEIRMMGHLNHPNIIRMLGATCEKSNYNLFIEWMAGGSVAHLLSKYGAFKESVVINYTEQLLRGLSYLHENQIIHRDVKGANLLIDSTGQRLRIADFGAAARLASKGTGAGEFQGQLLGTIAFMAPEVLRGQQYGRSCDVWSVGCAIIEMACAKPPWNAEKHSNHLALIFKIASATTAPSIPSHLSPGLRDVAVRCLELQPQDRPPSRELLKHPVFRTTW
B2: HA epitope-tagged MEKK3 (expressed in HEK293 cells) (protein)
chain: MGYPYDVPDYASDEQEALDSIMKDLVALQMSRRTRLSGYETMKNKDTGHPNRQSDVRIKFEHNGERRIIAFSRPVRYEDVEHKVTTVFGQPLDLHYMNNELSILLKNQDDLDKAIDILDRSSSMKSLRILLLSQDRNHTSSSPHSGVSRQVRIKPSQSAGDINTIYQAPEPRSRHLSVSSQNPGRSSPPPGYVPERQQHIARQGSYTSINSEGEFIPETSEQCMLDPLSSAENSLSGSCQSLDRSADSPSFRKSQMSRARSFPDNRKECSDRETQLYDKGVKGGTYPRRYHVSVHHKDYNDGRRTFPRIRRHQGNLFTLVPSSRSLSTNGENMGVAVQYLDPRGRLRSADSENALTVQERNVPTKSPSAPINWRRGKLLGQGAFGRVYLCYDVDTGRELASKQVQFDPDSPETSKEVSALECEIQLLKNLQHERIVQYYGCLRDRAEKILTIFMEYMPGGSVKDQLKAYGALTESVTRKYTRQILEGMSYLHSNMIVHRDIKGANILRDSAGNVKLGDFGASKRLQTICMSGTGIRSVTGTPYWMSPEVISGEGYGRKADVWSLGCTVVEMLTEKPPWAEYEAMAAIFKIATQPTNPQLPSHISEHGRDFLRRIFVEARQRPSAEELLTHHFAQLVY
B3: HA epitope-tagged MEKK2 (expressed in HEK293 cells) (protein)
chain: MGYPYDVPDYASDDQQALNSIMQDLAVLHKPVGQHYLYKKPGKQNLHHQKNRMMFESNLNIEEEKRILQVTRPVKLEDLRSKSKIAFGQSMDLHYTNNELVIPLTTQDDLDKAVELLDRSIHMKSLKILLVVNGSTQATNLEPSPSPEDLNNTPLGAERKKRLSVVGPPNRDRSSPPPGYIPDILHQIARNGSFTSINSEGEFIPESMDQMLDPLSLSSPENSGSGSCPSLDSPLDGESYPKSRMPRAQSYPDNHQEFTDYDNPIFEKFGKGGTYPRRYHVSYHHQEYNDGRKTFPRARRTQGTSFRSPVSFSPTDHSLSTSSGSSVFTPEYDDSRIRRRGSDIDNPTLTVTDISPPSRSPRAPTNWRLGKLLGQGAFGRVYLCYDVDTGRELAVKQVQFNPESPETSKEVNALECEIQLLKNLLHERIVQYYGCLRDPQEKTLSIFMELSPGGSIKDQLKAYGALTENVTRKYTRQILEGVHYLHSNMIVHRDIKGANILRDSTGNIKLGDFGASKRLQTICLSGTGMKSVTGTPYWMSPEVISGEGYGRKADIWSVACTVVEMLTEKPPWAEFEAMAAIFKIATQPTNPKLPPHVSDYTRDFLKRIFVEAKLRPSAEELLRHMFVHYH

Columns and labels:
[1] = molecular target: recombinant catalytically inactive MEK-1 (Lys343 to Met, polyhistidine fusion), P31938
[2] = molecular target: recombinant JNKK (substrate in Example 2)
[3] = molecular target: recombinant MEK1 (substrate in Example 2)

| Protein | phosphorylation of catalytically inactive MEK-1 by immunoprecipitated MEKK (γ-32P-ATP, SDS-PAGE, autoradiography) [1] | in vitro kinase assay of 12CA5 immunoprecipitates with a recombinant substrate and γ-32P-ATP [2] | in vitro kinase assay of 12CA5 immunoprecipitates with a recombinant substrate and γ-32P-ATP [3] |
| --- | --- | --- | --- |
| B1 | MEKK phosphorylated catalytically inactive MEK-1 | – | – |
| B2 | – | it did not show measurable kinase activity toward MEK 1 or JNKK | it did not show measurable kinase activity toward MEK 1 or JNKK |
| B3 | – | MEKK 2 clearly phosphorylates both MEK 1 and JNKK | MEKK 2 clearly phosphorylates both MEK 1 and JNKK |
